In paper doi:10.1101/2025.09.22.677823:

Key:
[1] = target: Human adenovirus 7 penton base (human adenovirus 7); assay: cryo-EM structure
[2] = target: Human adenovirus 7 fiber (human adenovirus 7); assay: cryo-EM structure

Substance | stoichiometry N [1] | stoichiometry N [2]
Human adenovirus 7 penton base (natural protein) | 5 | –
Human adenovirus 7 fiber (natural protein) | – | 3
